Laboratory results as given in patent publication US20240166765A1 (ICONIC THERAPEUTICS, published 2024).
Where a chain is given by its changes, count along the chain named.

B1: 39A (antibody, V domains shown)
VH: QVQLVQSGAEVKKPGSSVKVSCKASGGTFSSNAIGWVRQAPGQGLEWMGSIIPIIGFANYAQKFQGRVTITADESTSTAYMELSSLRSEDTAVYYCARDSGYYYGASSFGMDVWGQGTTVTVSS
VL: EIVMTQSPATLSVSPGERATLSCRASQSVSSNLAWYQQKPGQAPRLLIYGASTRATGIPARFSGSGSGTEFTLTISSLQSEDFAVYYCEQYNNLPLTFGGGTKVEIK
notes: Human anti-TF IgG1
B2: anti-TF antibody 39A (antibody, human IgG1, V domains shown)
VH: B1 VH
VL: B1 VL
notes: Human IgG1
B3: anti-TF antibody 54E (antibody, human IgG1, V domains shown)
VH: QVQLVQSGAEVKKPGASVKVSCKASGYTFANYYMHWVRQAPGQGLEWMGIINPSGGITVYAQKFQGRVTMTRDTSTSTVYMELSSLRSEDTAVYYCARGGSKVAALAFDIWGQGTMVTVSS
VL: DIQMTQSPSSLSASVGDRVTITCQASQDISNSLNWYQQKPGKAPKLLIYDASNLETGVPSRFSGSRSGTDFTFTISSLQPEDIATYYCQQYNFHPLTFGGGTKVEIK
notes: Human IgG1
B4: 25A (antibody, V domains shown)
VH: QVQLVQSGAEVKKPGASVKVSCKASGYTFDVYGISWVRQAPGQGLEWMGWIAPYNGNTNYAQKLQGRVTMTTDTSTSTAYMELRSLRSDDTAVYYCARDAGTYSPFGYGMDVWGQGTTVTVSS
VL: DIQMTQSPSTLSASVGDRVTITCRASQSISSWLAWYQQKPGKAPKLLIYKASSLESGVPSRFSGSGSGTEFTLTISSLQPDDFATYYCQQFQSLPPFTFGGGTKVEIK
notes: Human anti-TF IgG1
B5: anti-TF antibody 25A3 (antibody, human IgG1, kappa, V domains shown)
VH: B4 VH with N55S
VL: DIQMTQSPSTLSASVGDRVTITCQASQSINNWLAWYQQKPGKAPKLLIYKAYNLESGVPSRFSGSGSGTEFTLTISSLQPDDFATYYCQLFQSLPPFTFGGGTKVEIKR
notes: Human IgG1

How the values were obtained:
[1] = molecular target: T1, human Tissue Factor on MDA-MB-231 cells (human, UniProt P13726 33-295); experiment: flow cytometry, MDA-MB-231 cells; binding of 20 nM FVII-Fc-Alexa488 (competitor) left at 250 nM Ab
T1 construct: also called TF; hTF

[2] = molecular target: T1, human Tissue Factor on MDA-MB-231 cells; experiment: flow cytometry, MDA-MB-231 cells; binding of 20 nM FVII-Fc-Alexa488 (competitor) left at 9.25 nM Ab
Relipidated TF = Relipidated TF (UniProt P13726 33-295, limits assumed); experiment: cell-based or functional assay
[3] = molecular target: T1, human Tissue Factor on MDA-MB-231 cells; experiment: cell-based or functional assay
[4] = molecular target: T1, human Tissue Factor on MDA-MB-231 cells; experiment: flow cytometry, MDA-MB-231 cells; binding of 20 nM FVII-Fc-Alexa488 (competitor) left at 83 nM Ab
[5] = molecular target: T1, human Tissue Factor on MDA-MB-231 cells; experiment: flow cytometry, MDA-MB-231 cells; binding of 20 nM FVII-Fc-Alexa488 (competitor) left at 28 nM Ab
[6] = molecular target: T2, human Tissue Factor (hTF), endogenously expressed on human TF-positive cells (human, UniProt P13726 33-295); experiment: cell-based or functional assay
[7] = molecular target: T2, human Tissue Factor (hTF), endogenously …; experiment: flow cytometry competition on A431 cells, 100 nM unlabelled antibody, competitor 20 nM 25A-Alexa488
[8] = molecular target: T3, Macaca mulatta TF on RF/6A cells (Macaca mulatta, UniProt P13726 33-294 (human entry)); experiment: flow cytometry on Macaca mulatta RF/6A cells
T3 construct: also called TF-positive Macaca mulatta RF/6A cells; cynomolgus TF (cTF)
T3 chain: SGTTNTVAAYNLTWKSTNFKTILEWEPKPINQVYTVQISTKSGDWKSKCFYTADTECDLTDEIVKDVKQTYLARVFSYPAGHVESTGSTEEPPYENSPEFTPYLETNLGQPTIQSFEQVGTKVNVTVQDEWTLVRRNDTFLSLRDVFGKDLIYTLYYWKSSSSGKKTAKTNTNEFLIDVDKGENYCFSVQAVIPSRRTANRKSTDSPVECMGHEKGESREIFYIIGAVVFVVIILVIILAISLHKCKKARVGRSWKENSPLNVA

[9] = molecular target: T4, Expi293-derived human TF ECD-His6 (TF-His) (human, UniProt P13726 33-251); experiment: protein ELISA, plate coated with Expi293-derived TF-His
T4 construct: Glycosylated TF ECD-His6 made in Expi293 cells and coated on ELISA plates; also called Expi293-derived TF protein

[10] = molecular target: T5, E. coli-derived TF ECD-His6 (Homo sapiens (Human), UniProt P13726 33-251); experiment: protein ELISA, plate coated with E. coli-derived TF-His
T5 construct: The OmpA signal is not part of that entry; also called E.coli-derived TF protein; E. coli-derived TF-His

[11] = molecular target: T2, human Tissue Factor (hTF), endogenously …; experiment: flow cytometry competition on A431 cells, 100 nM unlabelled antibody, competitor 20 nM 43Ea-Alexa488

Binder | % FVIIa [1] [%] | % FVIIa [2] [%] | % IL8, 2.56 nM Ab [3] [%] | % IL8, 6.4 nM Ab [3] [%] | % IL8, 16 nM Ab [3] [%] | % IL8, 40 nM Ab [3] [%] | % IL8, 100 nM Ab [3] [%] | % FVIIa [4] [%] | % GM-CSF, 2.56 nM antibody, MDA-MB-231 cells + FVIIa [6] [%] | % GM-CSF, 6.4 nM antibody, MDA-MB-231 cells + FVIIa [6] [%] | % GM-CSF, 16 nM antibody, MDA-MB-231 cells + FVIIa [6] [%] | % GM-CSF, 40 nM antibody, MDA-MB-231 cells + FVIIa [6] [%] | % GM-CSF, 100 nM antibody, MDA-MB-231 cells + FVIIa [6] [%] | % 25A binding [7] [%] | EC50 [8] [nM] | EC50 [9] [nM] | EC50 [10] [nM] | also measured
B1 | 2 | 2 | 52 | 6 | 2 | 2 | 3 | 2 |  |  |  |  |  |  |  |  |  | TGA % ETP, 10 nM Ab, 10 min pre-incubation (Relipidated TF): 28%; TGA % ETP, 50 nM Ab, 10 min pre-incubation (Relipidated TF): 20%; TGA % Peak IIa, 10 nM Ab, 10 min pre-incubation (Relipidated TF): 9%; TGA % Peak IIa, 50 nM Ab, 10 min pre-incubation (Relipidated TF): 7%; TGA % Peak IIa, 100 nM Ab, 10 min pre-incubation (Relipidated TF): 7%; TGA ETP, 10 nM Ab, 10 min pre-incubation (Relipidated TF): 482 nM·min; TGA ETP, 50 nM Ab, 10 min pre-incubation (Relipidated TF): 346 nM·min; TGA Lag Time, 10 nM Ab, 10 min pre-incubation (Relipidated TF): 20.8 min; TGA Lag Time, 50 nM Ab, 10 min pre-incubation (Relipidated TF): 28.4 min; TGA Lag Time, 100 nM Ab, 10 min pre-incubation (Relipidated TF): 28 min; TGA Peak IIa, 10 nM Ab, 10 min pre-incubation (Relipidated TF): 25 nM; TGA Peak IIa, 50 nM Ab, 10 min pre-incubation (Relipidated TF): 17 nM; TGA Peak IIa, 100 nM Ab, 10 min pre-incubation (Relipidated TF): 17 nM; TGA ttPeak, 10 nM Ab, 10 min pre-incubation (Relipidated TF): 30.7 min; TGA ttPeak, 50 nM Ab, 10 min pre-incubation (Relipidated TF): 38.9 min; TGA ttPeak, 100 nM Ab, 10 min pre-incubation (Relipidated TF): 40.2 min; % FVIIa [5]: 2%
B2 |  |  |  |  |  |  |  |  | 42 | 8 | 5 | 5 | 7 | 99 | 0.27 | 0.45 | 0.34 | 
B3 |  |  |  |  |  |  |  |  | 38 | 10 | 5 | 5 | 5 | 99 | 1.28 | 0.96 | 0.38 | % 43Ea binding [11]: 96%
B4 | 98 | 100 | 43 | 11 | 10 | 8 | 9 | 97 |  |  |  |  |  |  |  |  |  | 
B5 |  |  |  |  |  |  |  |  |  |  |  |  |  |  | 0.27 | 0.47 | 0.36 | 
